Where no end group is shown, it is not given here.
B1: I-SceI (No CPP): meganuclease I-SceI without CPP, control (protein, UniProt P03882 1-235, looked up)
Intron-encoded endonuclease …: MKNIKKNQVMNLGPNSKLLKEYKSQLIELNIEQFEAGIGLILGDAYIRSRDEGKTYCMQFEWKNKAYMDHVCLLYDQWVLSPPHKKERVNHLGNLVITWGAQTFKHQAFNKLANLFIVNNKKTIPNNLVENYLTPMSLAYWFMDDGGKWDYNKNSTNKSIVLNTQSFTFEEVEYLVKGLRNKFQLNCYVKINKNKPIIYIDSMSYLIFYNLIKPYLIPQMMYKLPNTISSETFLK

Tests used:
E. coli DH5α cells [1] = assay: Penetration efficiency of TAMRA-labeled CPPs, chemical (CaCl2) treatment method, flow cytometry; assay type: cell-based, Escherichia coli; conditions: for Cell penetration efficiency (TAMRA fluorescence), Chemical (CaCl2) method - Tris buffer / Cell penetration efficiency (TAMRA fluorescence), Chemical (CaCl2) method - DW: 50 mM CaCl2-treated E. coli DH5α, 5 μg TAMRA-CPP; for Cell penetration efficiency (TAMRA fluorescence), Chemical (CaCl2) method - Tris buffer: 20 mM Tris-Cl pH 7.5, 1 h; for Cell penetration efficiency (TAMRA fluorescence), Chemical (CaCl2) method - DW: 5 × 10^7 cells/50 μL, distilled water, 1 h; for Penetration efficiency (TAMRA FI): TAMRA fluorescence intensity in E. coli, library screen of 98 CPPs
Source text: (§1) (Fig. 2a). […] First, we prepared electrocompetent and chemically competent cells.

E. coli DH5α cells [2] = assay: Inhibition of bacterial cell growth by CPPs (Max OD600 relative to control); assay type: cell-based, Escherichia coli; conditions: for Max OD (%) (Figure 3f): E. coli DH5α diluted 1/1000 in LB, 5 μg TAMRA-CPP (0.1 μg/μL), OD600 monitored 18 h, max OD of treated cells / max OD of control cells; for Growth rate (%): E. coli growth with CPP, relative to control; for Anti-bacterial activity: class (Cytotoxic / Safe), cutoff of 50%
Experimental: E. coli DH5α cells were grown until OD600 = 1 at 37 °C with shaking at 200 rpm. […] Then, cell growth (OD600) was monitored for 18 h by using the Synergy^TM H1 hybrid multi-mode microplate reader (BioTek, Vermont, USA). As a control, we used E. coli cells that were not treated with CPPs.

E. coli DH5α cells [3] = assay: Penetration efficiency of TAMRA-labeled CPPs, electroporation-based method, flow cytometry; assay type: cell-based, Escherichia coli; conditions: electrocompetent E. coli DH5α, 5 μg TAMRA-CPP, electroporation 1.8 kV; for Cell penetration efficiency (TAMRA fluorescence), Electrooration - Tris buffer: 20 mM Tris-HCl pH 7.5, 1 h; for Cell penetration efficiency (TAMRA fluorescence), Electrooration - DW: distilled water, 1 h
Source text: as §1

E. coli DH5α cells [4] = assay: Penetration efficiency of TAMRA-labeled CPPs, non-treated cells (control method), flow cytometry; conditions: 5 μg TAMRA-labeled CPP (0.1 μg/μL), 1 h, PBS washes
Experimental: For the evaluation and optimization of the electroporation-based method, five efficient CPPs were selected from the previous reports[45],[46] […] The CPP were labeled with TAMRA to trace their penetration into the cytoplasm. First, we prepared electrocompetent and chemically competent cells[46]. As a negative control, we also prepared non-treated cells. After treating the five TAMRA-labeled CPP peptides, either distilled water or 20 mM Tris-Cl (pH = 7.5) was added as a buffer to the E. coli–CPP mixture and incubated at 37 °C for 1 h. After washing the cells, their fluorescence intensities were measured by flow cytometry to quantify CPP delivery efficiency.
Prepared cells at a density of 5 × 10^7 cells/50 μL were treated with 5 μg of TAMRA-labeled CPPs (0.1 μg/μL) and incubated for 1 h at room temperature. After incubation, the cells were washed with 1 × PBS and centrifuged at 7000 rpm for 10 min three times to remove extracellular CPPs.
Then, the cells were washed with 1 × PBS and centrifuged at 7000 rpm for 10 min three times. The fluorescence intensity of the CPPs in E. coli cells was quantitatively measured using a Guava EasyCyte flow cytometer (Millipore, Darmstadt, Germany) with an excitation wavelength of 547 nm and an emission wavelength of 580 nm.

[5] = tested on: E. coli carrying target plasmid with I-SceI recognition site; assay: Plasmid removal assay using CPP-conjugated I-SceI; assay type: cell-based, Escherichia coli
Source text: To investigate the applicability of CPPs in plasmid removal using a CPP-conjugated I-SceI restriction enzyme, we constructed three different target plasmids containing a different replication origin: a pSC101 origin (low-copy number), ColE1 origin (mid-copy number), and RSF1030 origin (high-copy number). Then, an I-SceI recognition site was inserted into the target plasmids. In addition, for the selection of plasmid-containing cells and counterselection of plasmid-free cells, the tetA gene (tetracycline resistance gene) was introduced into the target plasmids. The selection and counterselection were conducted by using tetracycline and NiCl2, respectively.
For the plasmid removal experiment, three E. coli strains carrying a target plasmid with a different replication origin were prepared. The plasmids contained an I-SceI restriction site and a replication origin (pSC101, ColE1, or RSF1030). […] Then, the buffer was replaced with 1 × CutSmart buffer, because I-SceI requires the Mg^2+ included in the CutSmart buffer[64] as a cofactor. The cells were further incubated at 37 °C for 2 h and then spread on LB agar plates containing 2 mM NiCl2. The colonies grown on NiCl2-containing plates were transferred to an LB agar plate and a tetracycline-containing LB agar plate in order to confirm whether the plasmids were completely removed from the cells.

Row | Molecule | Cell penetration efficiency (TAMRA fluorescence), Chemical (CaCl2) method - Tris buffer (E. coli DH5α cells [1]; replicate 1) | Cell penetration efficiency (TAMRA fluorescence), Chemical (CaCl2) method - Tris buffer (E. coli DH5α cells [1]; replicate 2) | Cell penetration efficiency (TAMRA fluorescence), Chemical (CaCl2) method - Tris buffer (E. coli DH5α cells [1]; replicate 3) | Cell penetration efficiency (TAMRA fluorescence), Chemical (CaCl2) method - DW (E. coli DH5α cells [1]; replicate 1) | Cell penetration efficiency (TAMRA fluorescence), Chemical (CaCl2) method - DW (E. coli DH5α cells [1]; replicate 2) | Cell penetration efficiency (TAMRA fluorescence), Chemical (CaCl2) method - DW (E. coli DH5α cells [1]; replicate 3) | Penetration efficiency (TAMRA FI) (E. coli DH5α cells [1]) | Max OD (%) (Figure 3f) (E. coli DH5α cells [2]; replicate 1) | Max OD (%) (Figure 3f) (E. coli DH5α cells [2]; replicate 2) | Max OD (%) (Figure 3f) (E. coli DH5α cells [2]; replicate 3) | Growth rate (%) (E. coli DH5α cells [2]) | Anti-bacterial activity (E. coli DH5α cells [2]) | Cell penetration efficiency (TAMRA fluorescence), Electrooration - Tris buffer (E. coli DH5α cells [3]; replicate 1) | Cell penetration efficiency (TAMRA fluorescence), Electrooration - Tris buffer (E. coli DH5α cells [3]; replicate 2) | Cell penetration efficiency (TAMRA fluorescence), Electrooration - Tris buffer (E. coli DH5α cells [3]; replicate 3) | Cell penetration efficiency (TAMRA fluorescence), Electrooration - DW (E. coli DH5α cells [3]; replicate 1) | Cell penetration efficiency (TAMRA fluorescence), Electrooration - DW (E. coli DH5α cells [3]; replicate 2) | Cell penetration efficiency (TAMRA fluorescence), Electrooration - DW (E. coli DH5α cells [3]; replicate 3) | Cell penetration efficiency (TAMRA fluorescence), Control (E. coli DH5α cells [4]; replicate 1) | Cell penetration efficiency (TAMRA fluorescence), Control (E. coli DH5α cells [4]; replicate 2) | other results
1 | R9-TAT (GRRRRRRRRRPPQ; also: TAMRA label, site not given here) [CPP 14] | 247.778 A.U. | 278.483 A.U. | 297.356 A.U. | 1405.86 A.U. | 216.364 A.U. | 286.408 A.U. | 1704.74 | 76.3087% | 63.2803% | 64.6762% | 68.0884% | Safe | 1652.65 A.U. | 2400.94 A.U. | 906.944 A.U. | 871.282 A.U. | 655.834 A.U. | 728.231 A.U. | 29.4004 A.U. | 32.4749 A.U. | Cell penetration efficiency (TAMRA fluorescence), Electrooration - Tris buffer (E. coli DH5α cells [3]; replicate 4): 1858.43 A.U.; Cell penetration efficiency (TAMRA fluorescence), Control (E. coli DH5α cells [4]; replicate 3): 29.0426 A.U.
2 | Rev(34-50) (TRQARRNRRRRWRERQR; also: TAMRA label, site not given here) [CPP 15] | 103.028 A.U. | 97.4338 A.U. | 68.163 A.U. | 228.73 A.U. | 679.736 A.U. | 805.596 A.U. | 1458.36 | 73.0516% | 73.4005% | 79.5657% | 75.3393% | Safe | 1419.77 A.U. | 1626.5 A.U. | 1629.96 A.U. | 772.285 A.U. | 531.205 A.U. | 564.956 A.U. | 29.8568 A.U. | 31.0533 A.U. | Cell penetration efficiency (TAMRA fluorescence), Electrooration - Tris buffer (E. coli DH5α cells [3]; replicate 4): 1157.23 A.U.; Cell penetration efficiency (TAMRA fluorescence), Control (E. coli DH5α cells [4]; replicate 3): 36.163 A.U.
3 | ppTG1 (GLFKALLKLLKSLWKLLLKA; also: TAMRA label, position not given here) [CPP 16] | 251.992 A.U. | 38.28 A.U. | 55.663 A.U. | 201.023 A.U. | 237.812 A.U. | 176.507 A.U. | 130.52 | 61.1865% | 69.0965% | 63.3967% | 64.5599% | Safe | 299.308 A.U. | 307.97 A.U. | 322.066 A.U. | 116.793 A.U. | 316.678 A.U. | 302.379 A.U. | 21.8791 A.U. | 18.0245 A.U. | Cell penetration efficiency (TAMRA fluorescence), Chemical (CaCl2) method - Tris buffer (E. coli DH5α cells [1]; replicate 4): 85.7449 A.U.; Cell penetration efficiency (TAMRA fluorescence), Chemical (CaCl2) method - Tris buffer (E. coli DH5α cells [1]; replicate 5): 220.921 A.U.; Cell penetration efficiency (TAMRA fluorescence), Control (E. coli DH5α cells [4]; replicate 3): 15.0301 A.U.
4 | B1 |  |  |  |  |  |  |  |  |  |  |  |  |  |  |  |  |  |  |  |  | Plasmid removal efficiency (%) ([5]; plasmid with ColE1 origin (15–20 copies), same protocol, replicate 1): 19.3%; Plasmid removal efficiency (%) ([5]; plasmid with ColE1 origin (15–20 copies), same protocol, replicate 2): 13.3%; Plasmid removal efficiency (%) ([5]; plasmid with ColE1 origin (15–20 copies), same protocol, replicate 3): 14.8%; Plasmid removal efficiency (%) ([5]; plasmid with RSF1030 origin (>100 copies), same protocol, replicate 1): 17.57%; Plasmid removal efficiency (%) ([5]; plasmid with RSF1030 origin (>100 copies), same protocol, replicate 2): 16.88%; Plasmid removal efficiency (%) ([5]; plasmid with RSF1030 origin (>100 copies), same protocol, replicate 3): 17.79%; Plasmid removal efficiency (%) ([5]; plasmid with pSC101 origin (~5 copies), 50 μL protein (0.05 μg/μL), electroporation, Tris-HCl pH 7.5 3 h, CutSmart 2 h 37 °C, 2 mM NiCl2 selection, replicate 1): 16.6%; Plasmid removal efficiency (%) ([5]; plasmid with pSC101 origin (~5 copies), 50 μL protein (0.05 μg/μL), electroporation, Tris-HCl pH 7.5 3 h, CutSmart 2 h 37 °C, 2 mM NiCl2 selection, replicate 2): 15%; Plasmid removal efficiency (%) ([5]; plasmid with pSC101 origin (~5 copies), 50 μL protein (0.05 μg/μL), electroporation, Tris-HCl pH 7.5 3 h, CutSmart 2 h 37 °C, 2 mM NiCl2 selection, replicate 3): 15.64%
